{
  "source": "patent US20210002376A1",
  "key": {"DR5-Fc fusion protein [1]": {"molecular_target": "DR5-Fc fusion protein (UniProt O14763)", "assay": "ELISA, coated DR5-Fc, anti-human Fab-HRP"}, "DR5-Fc fusion protein [2]": {"molecular_target": "DR5-Fc fusion protein (UniProt O14763)", "assay": "ELISA, coated DR5-Fc, anti-human Fab-HRP", "remark": "listed apart in the source"}},
  "note": "pEC50: −log10 of the molar value. Read-outs that look alike come from different tables or passages of the source.",
  "data": [
    {"substance": "Drozitumab (antibody)", "values": [
      {"measurement": "pEC50", "setting": "DR5-Fc fusion protein [1]", "result": 8.85},
      {"measurement": "pEC50", "setting": "DR5-Fc fusion protein [2]", "result": 8.92}
    ]}
  ]
}
